# Data taken from patent US20240368565A1 (PROMEGA, published 2024).
# Values joined by “and” are separate entries in the source; they are usually repeats but may differ in a detail not shown here. Equal entries are not always repeated. Ends that are not written are not given here. * marks the point of attachment. Biotin = O=C1N[C@H]2[C@H](CS[C@H]2CCCCC(=O)*)N1
# T1: Biotin-HaloTag[3-19] (G5R)-4xGly/Ser-VS-HiBiT (N-terminal biotin)
# T1 construct: Synthetic peptide
# T1 peptide: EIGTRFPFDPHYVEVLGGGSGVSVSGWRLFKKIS
# T2: Biotin-HaloTag[3-19] (D9R)-4xGly/Ser-VS-HiBiT (N-terminal biotin)
# T2 construct: Synthetic peptide
# T2 peptide: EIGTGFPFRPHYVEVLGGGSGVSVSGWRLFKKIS
# T3: Biotin-HaloTag[3-19] (E14K)-4xGly/Ser-VS-HiBIT (N-terminal biotin)
# T3 construct: Synthetic peptide
# T3 peptide: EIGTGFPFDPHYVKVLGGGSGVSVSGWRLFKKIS
# T4: Biotin-HaloTag[3-19] (L16R)-4xGly/Ser-VS-HiBiT (N-terminal biotin)
# T4 construct: Synthetic peptide
# T4 peptide: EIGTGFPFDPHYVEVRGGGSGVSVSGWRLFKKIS
# T5: Biotin-HaloTag[3-19] (I2R + G3K)-4xGly/Ser-VS-HiBiT (N-terminal biotin)
# T5 construct: Synthetic peptide; also called HaloTag[3-19](I2R + G3K)-4xGS-VSHiBIT
# T5 peptide: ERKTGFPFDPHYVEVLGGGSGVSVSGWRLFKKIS
# T6: Biotin-HaloTag[3-19] (I2R + G5R)-4xGly/Ser-VS-HiBiT (N-terminal biotin)
# T6 construct: Synthetic peptide; also called HaloTag[3-19](I2R + G5R)-4xGS-VSHiBiT
# T6 peptide: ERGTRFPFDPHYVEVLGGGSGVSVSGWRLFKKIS
# T7: Biotin-HaloTag[3-19] (D9R + E14K)-4xGly/Ser-VS-HiBiT (N-terminal biotin)
# T7 construct: Synthetic peptide; also called HaloTag[3-19](D9R + E14K)-4xGS-VSHiBiT
# T7 peptide: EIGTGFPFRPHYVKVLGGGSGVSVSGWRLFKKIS
# T8: Biotin-HaloTag[3-19] (D9R + L16R)-4xGly/Ser-VS-HiBiT (N-terminal biotin)
# T8 construct: Synthetic peptide; also called HaloTag[3-19](D9R + L16R)-4xGS-VSHiBiT
# T8 peptide: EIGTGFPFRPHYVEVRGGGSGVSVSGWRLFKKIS
# T9: Biotin-HaloTag[3-19] (I2R + D9R)-4xGly/Ser-VS-HiBiT (N-terminal biotin)
# T9 construct: Synthetic peptide; also called HaloTag[3-19](I2R + D9R)-4xGS-VSHiBiT
# T9 peptide: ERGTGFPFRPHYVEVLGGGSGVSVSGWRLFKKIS
# T10: Biotin-HaloTag[3-19] (I2R + G17R)-4xGly/Ser-VS-HiBiT (N-terminal biotin)
# T10 construct: Synthetic peptide; also called HaloTag[3-19](I2R + G17R)-4xGS-VSHiBiT
# T10 peptide: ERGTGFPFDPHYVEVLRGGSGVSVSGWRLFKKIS
# T11: Biotin-HaloTag[3-19] (G3K + E14K)-4xGly/Ser-VS-HiBiT (N-terminal biotin)
# T11 construct: Synthetic peptide; also called HaloTag[3-19](G3K + E14K)-4xGS-VSHiBiT
# T11 peptide: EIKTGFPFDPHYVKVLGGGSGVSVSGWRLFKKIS
# T12: Biotin-HaloTag[3-19] (G3K + L16R)-4xGly/Ser-VS-HiBiT (N-terminal biotin)
# T12 construct: Synthetic peptide; also called HaloTag[3-19](G3K + L16R)-4xGS-VSHiBiT
# T12 peptide: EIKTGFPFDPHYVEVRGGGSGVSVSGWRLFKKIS
# T13: Biotin-HaloTag[3-19] (I2R)-4xGly/Ser-VS-HiBiT (N-terminal biotin)
# T13 construct: Synthetic peptide; also called HaloTag[3-19](12R)-4×Gly/Ser-VS-HiBiT; DualTag peptide
# T13 peptide: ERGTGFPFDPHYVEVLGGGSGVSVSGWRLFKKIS
# T14: Biotin-HaloTag[3-19] (G3K)-4xGly/Ser-VS-HiBIT (N-terminal biotin)
# T14 construct: Synthetic peptide
# T14 peptide: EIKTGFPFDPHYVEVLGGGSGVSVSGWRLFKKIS
# T15: Biotin-VS-HiBiT
# T15 construct: Synthetic peptide
# T15 peptide: Biotin-VSVSGWRLFKKIS
# B1: HaloTag[22-297](M2F)-12xGly/Ser-LgBiT (other)
# chain: MFHYVDVGPRDGTPVLFLHGNPTSSYVWRNIIPHVAPTHRCIAPDLIGMGKSDKPDLGYFFDDHVRFMDAFIEALGLEEVVLVIHDWGSALGFHWAKRNPERVKGIAFMEFIRPIPTWDEWPEFARETFQAFRTTDVGRKLIIDQNVFIEGTLPMGVVRPLTEVEMDHYREPFLNPVDREPLWRFPNELPIAGEPANIVALVEEYMDWLHQSPVPKLLFWGTPGVLIPPAEAARLAKSLPNCKAVDIGPGLNLLQEDNPDLIGSEIARWLSTLEISGGSGGSGGGGSGGMVFTLEDFVGDWEQTAAYNLDQVLEQGGVSSLLQNLAVSVTPIQRIVRSGENALKIDIHVIIPYEGLSADQMAQIEEVFKVVYPVDDHHFKVILPYGTLVIDGVTPNMLNYFGRPYEGIAVFDGKKITVTGTLWNGNKIIDERLITPDGSMLFRVTINS
# B2: HaloTag[22-297](Q145H+P154R)-LgBiT (other)
# chain: MMHYVDVGPRDGTPVLFLHGNPTSSYVWRNIIPHVAPTHRCIAPDLIGMGKSDKPDLGYFFDDHVRFMDAFIEALGLEEVVLVIHDWGSALGFHWAKRNPERVKGIAFMEFIRPIPTWDEWPEFARETFQAFRTTDVGRKLIIDHNVFIEGTLRMGVVRPLTEVEMDHYREPFLNPVDREPLWRFPNELPIAGEPANIVALVEEYMDWLHQSPVPKLLFWGTPGVLIPPAEAARLAKSLPNCKAVDIGPGLNLLQEDNPDLIGSEIARWLSTLEISGGSGGSGGGGSGGMVFTLEDFVGDWEQTAAYNLDQVLEQGGVSSLLQNLAVSVTPIQRIVRSGENALKIDIHVIIPYEGLSADQMAQIEEVFKVVYPVDDHHFKVILPYGTLVIDGVTPNMLNYFGRPYEGIAVFDGKKITVTGTLWNGNKIIDERLITPDGSMLFRVTINSGSGHHHHHH
# B3: HaloTag[22-297](M2F + K140E)-12xGly/Ser-LgBiT-3xGly/Ser-6xHis (other)
# chain: MFHYVDVGPRDGTPVLFLHGNPTSSYVWRNIIPHVAPTHRCIAPDLIGMGKSDKPDLGYFFDDHVRFMDAFIEALGLEEVVLVIHDWGSALGFHWAKRNPERVKGIAFMEFIRPIPTWDEWPEFARETFQAFRTTDVGRELIIDQNVFIEGTLPMGVVRPLTEVEMDHYREPFLNPVDREPLWRFPNELPIAGEPANIVALVEEYMDWLHQSPVPKLLFWGTPGVLIPPAEAARLAKSLPNCKAVDIGPGLNLLQEDNPDLIGSEIARWLSTLEISGGSGGSGGGGSGGMVFTLEDFVGDWEQTAAYNLDQVLEQGGVSSLLQNLAVSVTPIQRIVRSGENALKIDIHVIIPYEGLSADQMAQIEEVFKVVYPVDDHHFKVILPYGTLVIDGVTPNMLNYFGRPYEGIAVFDGKKITVTGTLWNGNKIIDERLITPDGSMLFRVTINSGSGHHHHHH
# notes: Purified tandem polypeptide reporter variant
# B4: HaloTag[22-297](M2F + F148M + V177E)-12xGly/Ser-LgBiT-3xGly/Ser-6xHis (other)
# chain: MFHYVDVGPRDGTPVLFLHGNPTSSYVWRNIIPHVAPTHRCIAPDLIGMGKSDKPDLGYFFDDHVRFMDAFIEALGLEEVVLVIHDWGSALGFHWAKRNPERVKGIAFMEFIRPIPTWDEWPEFARETFQAFRTTDVGRKLIIDQNVMIEGTLPMGVVRPLTEVEMDHYREPFLNPEDREPLWRFPNELPIAGEPANIVALVEEYMDWLHQSPVPKLLFWGTPGVLIPPAEAARLAKSLPNCKAVDIGPGLNLLQEDNPDLIGSEIARWLSTLEISGGSGGSGGGGSGGMVFTLEDFVGDWEQTAAYNLDQVLEQGGVSSLLQNLAVSVTPIQRIVRSGENALKIDIHVIIPYEGLSADQMAQIEEVFKVVYPVDDHHFKVILPYGTLVIDGVTPNMLNYFGRPYEGIAVFDGKKITVTGTLWNGNKIIDERLITPDGSMLFRVTINSGSGHHHHHH
# notes: as for B3
# B5: HaloTag[22-297](M2F + D53G + V177E)-12xGly/Ser-LgBiT-3xGly/Ser-6xHis (other)
# chain: MFHYVDVGPRDGTPVLFLHGNPTSSYVWRNIIPHVAPTHRCIAPDLIGMGKSGKPDLGYFFDDHVRFMDAFIEALGLEEVVLVIHDWGSALGFHWAKRNPERVKGIAFMEFIRPIPTWDEWPEFARETFQAFRTTDVGRKLIIDQNVFIEGTLPMGVVRPLTEVEMDHYREPFLNPEDREPLWRFPNELPIAGEPANIVALVEEYMDWLHQSPVPKLLFWGTPGVLIPPAEAARLAKSLPNCKAVDIGPGLNLLQEDNPDLIGSEIARWLSTLEISGGSGGSGGGGSGGMVFTLEDFVGDWEQTAAYNLDQVLEQGGVSSLLQNLAVSVTPIQRIVRSGENALKIDIHVIIPYEGLSADQMAQIEEVFKVVYPVDDHHFKVILPYGTLVIDGVTPNMLNYFGRPYEGIAVFDGKKITVTGTLWNGNKIIDERLITPDGSMLFRVTINSGSGHHHHHH
# notes: as for B3
# B6: LgBiT-6xHis (other)
# chain: MVFTLEDFVGDWEQTAAYNLDQVLEQGGVSSLLQNLAVSVTPIQRIVRSGENALKIDIHVIIPYEGLSADQMAQIEEVFKVVYPVDDHHFKVILPYGTLVIDGVTPNMLNYFGRPYEGIAVFDGKKITVTGTLWNGNKIIDERLITPDGSMLFRVTINSHHHHHH
# notes: also called LgBiT-6×His; LgBiT alone
# Tests used:
# [1] = target: FKBP-SmHT-HiBiT; assay: cell-based or functional assay
# [2] = target: T1, Biotin-HaloTag[3-19] …; assay: BLI; biotin-peptide on streptavidin probe; PBST, 25 C
# [3] = target: T2, Biotin-HaloTag[3-19] …; assay: as above
# [4] = target: T3, Biotin-HaloTag[3-19] …; assay: as above
# [5] = target: T4, Biotin-HaloTag[3-19] …; assay: as above
# [6] = target: T5, Biotin-HaloTag[3-19] (I2R + …); assay: as above
# [7] = target: T6, Biotin-HaloTag[3-19] (I2R + …); assay: as above
# [8] = target: T7, Biotin-HaloTag[3-19] (D9R + …); assay: as above
# [9] = target: T8, Biotin-HaloTag[3-19] (D9R + …); assay: as above
# [10] = target: T9, Biotin-HaloTag[3-19] (I2R + …); assay: as above
# [11] = target: T10, Biotin-HaloTag[3-19] (I2R + …); assay: as above
# [12] = target: T11, Biotin-HaloTag[3-19] (G3K + …); assay: as above
# [13] = target: T12, Biotin-HaloTag[3-19] (G3K + …); assay: as above
# [14] = target: T13, Biotin-HaloTag[3-19] …; assay: as above
# [15] = target: T14, Biotin-HaloTag[3-19] …; assay: as above
# [16] = target: T15, Biotin-VS-HiBiT; assay: as above
Binder,luminescence (FIG. 9) [1] [fold],kon [2] [M⁻¹ s⁻¹],kon [6] [M⁻¹ s⁻¹],kon [7] [M⁻¹ s⁻¹],kon [8] [M⁻¹ s⁻¹],kon [9] [M⁻¹ s⁻¹],Kd [14],koff [14],kon [14],Kd [15] [nM],koff [15] [s⁻¹],kon [15] [M⁻¹ s⁻¹],Kd [16] [nM],koff [16] [s⁻¹],kon [16] [M⁻¹ s⁻¹],further results
B1,~100,,,,,,,,,,,,,,,
B2,~100,,,,,,,,,,,,,,,
B3,,85300,104000,95100,152000,134000,0.684 nM and 0.466 nM,4.56e-05 s⁻¹ and 3.26e-05 s⁻¹,66700 M⁻¹ s⁻¹ and 70000 M⁻¹ s⁻¹,0.264,1.93e-05,73000,,,,Kd [3]: 0.126 nM; koff [3]: 1.09e-05 s⁻¹; kon [3]: 86600 M⁻¹ s⁻¹; kon [4]: 108000 M⁻¹ s⁻¹; kon [5]: 77900 M⁻¹ s⁻¹; Kd [8]: 0.111 nM; koff [8]: 1.69e-05 s⁻¹; kon [10]: 128000 M⁻¹ s⁻¹; kon [11]: 93300 M⁻¹ s⁻¹; kon [12]: 128000 M⁻¹ s⁻¹; kon [13]: 97100 M⁻¹ s⁻¹
B4,,46000,,,,,0.509 nM,2.75e-05 s⁻¹,54000 M⁻¹ s⁻¹,0.102,5.03e-06,49500,2.4,0.000628,261000,Kd [2]: 0.485 nM; koff [2]: 2.23e-05 s⁻¹
B5,,,,,,,0.669 nM,4.09e-05 s⁻¹,61300 M⁻¹ s⁻¹,,,,,,,
B6,,,74500,53200,83000,64800,,,,,,,5.06,0.000931,184000,Kd [6]: 0.323 nM; koff [6]: 2.4e-05 s⁻¹; Kd [7]: 0.11 nM; koff [7]: 5.86e-06 s⁻¹
